# Measured values as given in IntAct's records for PubMed 24469400.
# B1: Syntaxin-4 (Rattus norvegicus (Rat)), Q08850 (parent)
# chain: MRDRTHELRQGDNISDDEDEVRVALVVHSGAARLSSPDDEFFQKVQTIRQTMAKLESKVRELEKQQVTILATPLPEESMKQGLQNLREEIKQLGREVRAQLKAIEPQKEEADENYNSVNTRMKKTQHGVLSQQFVELINKCNSMQSEYREKNVERIRRQLKITNAGMVSDEELEQMLDSGQSEVFVSNILKDTQVTRQALNEISARHSEIQQLERSIRELHEIFTFLATEVEMQGEMINRIEKNILSSADYVERGQEHVKIALENQKKARKKKVMIAICVSVTVLILAVIIGITITVG
# Variants of: B1
# Conditions: with vamp2_rat Vamp2, P63045
# Chain of vamp2_rat Vamp2, P63045 (P63045 whole entry): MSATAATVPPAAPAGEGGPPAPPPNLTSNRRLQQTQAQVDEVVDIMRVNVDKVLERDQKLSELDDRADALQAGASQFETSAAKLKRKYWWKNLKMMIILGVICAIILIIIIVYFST
row,effect of a mutation on the interaction,Variant
1,increasing interaction strength,MRDRTHELRQGDNISDDEDEVRVALVVHSGAARLSSPDDEFFQKVQTIRQTMAKLESKVRELEKQQVTILATPLPEESMKQGLQNLREEIKQLGREVRAQLKAIEPQKEEADENYNSVNTRMKKTQHGVLSQQFVELINKCNSMQSEYREKNVERIRRQLKITNAGMVSDEEAAQMLDSGQSEVFVSNILKDTQVTRQALNEISARHSEIQQLERSIRELHEIFTFLATEVEMQGEMINRIEKNILSSADYVERGQEHVKIALENQKKARKKKVMIAICVSVTVLILAVIIGITITVG [L173A;E174A]
